Results: article PMC12208494, “The zinc metalloprotein MigC impacts cell wall biogenesis through interactions with an essential Mur ligase in Acinetobacter baumannii” (PLOS Pathogens, 2025)
pKi: −log10 of the molar value.

Tests used:
[1] = biological target: MurD (A1S_0245), recombinant, purified (Acinetobacter baumannii); experiment: enzyme inhibition curve (HPLC assay of MurD activity); 40 nM MurD; Zn-loaded MigC (1.0 mol equivalent ZnSO4) 0.025-75 µM final, with GTP; enzyme mixture pre-incubated 10 min at 37 °C; 200 µM UMA, 1 mM D-glutamate, 1 mM ATP, 0.1 mg/mL BSA; 25 mM HEPES, 150 mM KCl, 2 mM MgCl2, 2 mM TCEP, pH 7.4, 37 °C; Ki fitted with the maximal inhibition fixed from a global fit
MurD (A1S_0245), recombinant, purified (Acinetobacter baumannii), sequence (A3M1C6 whole entry): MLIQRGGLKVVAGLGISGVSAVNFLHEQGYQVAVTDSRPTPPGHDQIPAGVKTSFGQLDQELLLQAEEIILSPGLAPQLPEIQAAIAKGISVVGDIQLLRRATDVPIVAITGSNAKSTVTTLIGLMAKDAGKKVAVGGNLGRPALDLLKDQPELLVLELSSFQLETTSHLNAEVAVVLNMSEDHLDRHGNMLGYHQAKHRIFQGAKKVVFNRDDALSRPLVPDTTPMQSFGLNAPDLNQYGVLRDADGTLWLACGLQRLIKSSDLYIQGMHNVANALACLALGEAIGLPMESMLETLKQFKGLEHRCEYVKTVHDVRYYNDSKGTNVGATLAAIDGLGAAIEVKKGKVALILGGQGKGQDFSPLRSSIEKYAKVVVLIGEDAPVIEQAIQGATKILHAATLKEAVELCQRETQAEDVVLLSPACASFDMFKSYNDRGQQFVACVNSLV

[2] = biological target: MurD (A1S_0245), recombinant, purified (Acinetobacter baumannii); experiment: enzyme inhibition curve (HPLC assay of MurD activity); as a3 but apo MigC (no Zn) with GTP
[3] = biological target: MurD (A1S_0245), recombinant, purified (Acinetobacter baumannii)
[4] = biological target: MurD (A1S_0245), recombinant, purified (Acinetobacter baumannii); experiment: enzyme inhibition curve (HPLC assay of MurD activity); as a3 but apo MigC (no Zn) without GTP

Substance | pKi [1] | pKi [2] | maximal inhibition of MurD activity at saturating Zn-MigC (inhibition curves, 0.025-75 µM MigC, HPLC) [3] | pKi [4]
E99A MigC, recombinant, purified (enzyme) | 4.68 |  |  | 
MigC (A1S_0934), recombinant, purified (enzyme) | 4.49 | 4.37 | 75% | 4.70
